Measurements as given in patent US7460961B2, “N-TRADD active site and uses thereof” (Genetics Institute, LLC, priority 2000, dated 2008).
Ends that are not written are not given here.

B2: N-terminal domain of human TNFR-1 associated death domain protein (N-TRADD), residues 1-169, wild type (other)
chain: MAAGQNGHEEWVGSAYLFVESSLDKVVLSDAYAHPQQKVAVYRALQAALAESGGSPDVLQMLKIHRSDPQLIVQLRFCGRQPCGRFLRAYREGALRAALQRSLAAALAQHSVPLQLELRAGAERLDALLADEERCLSCILAQQPDRLRDEELAELEDALRNLKCGSGAR
notes: Expressed in E. coli BL-21; monomeric (>95%) by SEC-HPLC; 15N or 15N/13C labelled for NMR; also called N-TRADD (1-169); wild-type N-TRADD; not shown: His tag introduced after aa169

Tests used:
[1] = molecular target: T1, N-TRADD (Homo sapiens, UniProt Q15628); assay: 1H-15N HSQC of N-TRADD with addition of peptide; assay type: binding
T1 construct: The polypeptide for N-TRADD (1-169) was overexpressed in BL-21 E. coli; His tag (C); made in house; host or cells: E. coli BL-21, vector pRSETB
T1 sequence (Q15628 1-169): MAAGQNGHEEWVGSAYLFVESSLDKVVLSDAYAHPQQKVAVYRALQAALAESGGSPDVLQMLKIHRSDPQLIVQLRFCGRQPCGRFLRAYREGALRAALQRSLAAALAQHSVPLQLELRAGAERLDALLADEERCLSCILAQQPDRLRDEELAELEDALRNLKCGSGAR
Method: (§1) NMR Spectroscopy: All NMR spectra were collected on a 600 MHZ Varian Unity Plus spectrometer. For the backbone assignments, HNCACB and HN(CO)CACB experiments (Clore and Gronenborn, Methods Enzymol. 239: 349-363, 1994; Muhandiram, et al., J. Magn. Reson. B103: 208-216, 1994) were performed. To confirm the type of amino acid assignment, C(CO)NH-TOCSY (Grzesiek, et al., J. Magnetic Resonance, B101: 114-119, 1993) was used. Side chain resonances were assigned from the following experiments: HBHA(CO)NH (Clore and Gronenborn, Methods Enzymol. 239: 349-363, 1994), HC(CO)NH-TOCSY (Grzesiek, et al., J. Magnetic Resonance. B101: 114-119, 1993) for the ^15N/^13C sample in 90% H2O, 10% D2O, HCCH-TOCSY for the ^15N/^13C-labeled sample in D2O, and ^15N-TOCSY-HSQC with the uniformly labeled ^15N protein.
Inhibition by the CD40-derived peptide was also observed in the ^1H-^15N HSQC studies of N-TRADD/C-TRAF2 binding. At stoichiometric concentrations of N-TRADD and C-TRAF2 (110 μM each), HSQC peaks for N-TRADD have broadened out due to binding to C-TRAF2 as described above.

[2] = molecular target: T1, N-TRADD; assay: BIAcore experiment, CD40 peptide with N-TRADD; assay type: binding; conditions: final peptide concentration approximately 15 mM; data not shown
[3] = molecular target: T2, N-TRADD/C-TRAF2 interaction (Homo sapiens, UniProt Q12933); assay: BIAcore competition for binding of N-TRADD to C-TRAF2
T2 construct: The C-TRAF2 (residues 262-501) used in the instant HSQC titration experiment; initiator Met added before residue 262 (N); 6xHis (C); made in house; host or cells: C-TRAF2: baculovirus in 'Tini' cells; N-TRADD: E. coli BL-21
T2 sequence (Q12933 262-501): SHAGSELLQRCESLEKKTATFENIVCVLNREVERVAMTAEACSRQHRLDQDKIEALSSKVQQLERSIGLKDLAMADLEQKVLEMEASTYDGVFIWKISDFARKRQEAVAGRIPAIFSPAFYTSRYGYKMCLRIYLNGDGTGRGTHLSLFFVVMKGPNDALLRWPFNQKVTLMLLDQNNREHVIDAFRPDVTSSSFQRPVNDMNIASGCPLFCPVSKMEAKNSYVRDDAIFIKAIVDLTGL
Method: (§2) C-TRAF2 and N-TRADD binding studies: The affinity of wild-type N-TRADD and C-TRAF2 was measured by surface plasma resonance using a BIAcore 2000 system (Pharmacia Biosensor AB). C-TRAF2 (residues 262-501) was purified and coupled to a sensor chip CM5 by amine coupling at pH=5.0 to get about 800, 1500 and 5500 response units on three different flow cells. A constant flow (20 μL/min) of purified N-TRADD protein in 10 mM Hepes, pH=7.4, 150 mM NaCl, 3.4 mM EDTA and 0.05% P20 surfactant at 8 different concentrations from 650 μM to 84 μM was applied over the protein coupled chip for 2 min to analyze the association. Binding constants were obtained from the BIAevaluation software.
In the instant studies, the interaction between a 13-mer peptide derived from CD40 (a longer version of CD40 -pl, with sequences SNTAAPVQETLHG (SEQ ID NO:2)) with C-TRAF2 was characterized, as well as its effect on the N-TRADD/C-TRAF2 interaction. […] In addition the peptide was also able to compete for the binding of N-TRADD to C-TRAF2, with an IC50 of ˜1 mM.
In addition to this 13-mer peptide, the effect of the CD40-p1 peptide (McWhirter et al, Proc. Natl. Acad. Sci. USA 96: 8408-8413, 1999) on the interaction between N-TRADD and C-TRAF2 was also evaluated. […]

[4] = molecular target: T3, N-TRADD/C-TRAF2 binding (Homo sapiens, UniProt Q12933); assay: 1H-15N HSQC NMR study of N-TRADD/C-TRAF2 binding, inhibition by peptide; conditions: peptide 3 mM; N-TRADD and C-TRAF2 110 μM each; data not shown
T3 construct: The C-TRAF2 (residues 262-501) used in the instant HSQC titration experiment; initiator Met added before residue 262 (N); 6xHis (C); made in house; host or cells: C-TRAF2: baculovirus in 'Tini' cells; N-TRADD: E. coli BL-21
T3 sequence (Q12933 262-501): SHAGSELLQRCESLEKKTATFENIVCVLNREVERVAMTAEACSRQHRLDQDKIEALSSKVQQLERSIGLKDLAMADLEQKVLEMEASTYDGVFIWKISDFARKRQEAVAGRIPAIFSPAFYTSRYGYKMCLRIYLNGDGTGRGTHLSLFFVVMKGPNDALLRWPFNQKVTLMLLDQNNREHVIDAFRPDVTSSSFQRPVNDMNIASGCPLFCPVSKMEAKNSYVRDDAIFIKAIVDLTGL
Method: as §1
The ^1H-^15N HSQC of N-TRADD was used as a tool to map the binding interface with C-TRAF2, since the chemical shifts of contact residues will be perturbed upon complex formation. […] The C-TRAF2 (residues 262-501) used in the instant HSQC titration experiment (at 120 μM) is also a trimer, as determined by size exclusion chromatography. […] N-TRADD Mutagenesis and interactions between C-TRAF2 and N-TRADD: In order to further characterize the amino acids in N-TRADD that are involved in C-TRAF2 recognition, site directed mutants of N-TRADD were prepared and evaluated for their ability to bind C-TRAF2. […]

[5] = molecular target: T4, C-TRAF2 (residues 262 to 501 of human TRAF2) (human, UniProt Q12933 262-501); assay: BIAcore (SPR)
T4 construct: range 262-501; Expressed by baculovirus; Amine-coupled to a CM5 chip in the BIAcore experiments; also called C-terminal domain of TRAF2; C-TRAF2 (residues 262-501)
T4 sequence: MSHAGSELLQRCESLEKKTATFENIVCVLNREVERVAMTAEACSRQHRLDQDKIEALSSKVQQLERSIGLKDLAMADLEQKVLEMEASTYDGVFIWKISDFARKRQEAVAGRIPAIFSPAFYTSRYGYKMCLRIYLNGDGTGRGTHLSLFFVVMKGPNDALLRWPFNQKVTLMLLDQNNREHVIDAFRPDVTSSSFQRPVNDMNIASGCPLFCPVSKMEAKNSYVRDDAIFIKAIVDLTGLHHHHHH

[6] = molecular target: T4, C-TRAF2 (residues 262 to 501 of human …); assay: BIAcore competition; competitor N-TRADD
[7] = molecular target: B2; assay: 1H-15N HSQC NMR
[8] = molecular target: T4, C-TRAF2 (residues 262 to 501 of human …); assay: BIAcore (SPR), C-TRAF2 amine-coupled to CM5 chip, N-TRADD in flow
Method: as §2, with “µL/min)” for “μL/min)”, “µM” for “μM”

[9] = molecular target: T4, C-TRAF2 (residues 262 to 501 of human …); assay: BIAcore surface plasmon resonance, C-TRAF2 (printed TF2-C) coupled to the CM5 chip, N-TRADD mutant in the flow
[10] = molecular target: T4, C-TRAF2 (residues 262 to 501 of human …); assay: BIAcore (SPR), C-TRAF2 on chip
Method: as §2, with “µL/min)” for “μL/min)”, “µM” for “μM”

[11] = molecular target: T4, C-TRAF2 (residues 262 to 501 of human …); assay: inhibition of the N-TRADD/C-TRAF2 interaction; competitor N-TRADD

SNTAAPVQETLHG-OH [13-mer peptide derived from CD40, SNTAAPVQETLHG-OH]
interaction between N-TRADD and peptide (changes in 1H-15N HSQC of N-TRADD) [1]: No interaction
interaction between peptide and N-TRADD by BIAcore [2]: lack of interaction
inhibition of the interaction between N-TRADD and C-TRAF2 (in words) [3]: inhibited
effect on 1H-15N HSQC spectrum of N-TRADD broadened by C-TRAF2 [4]: restored the ^1H-^15N HSQC spectrum of N-TRADD alone

B1: 13-mer peptide derived from CD40 (SNTAAPVQETLHG-OH) (peptide)
peptide: SNTAAPVQETLHG-OH
notes: Synthesised by Fmoc solid-phase methods; printed with a free C-terminus (-OH); also called CD40 peptide; CD40-derived peptide
Kd [5]: ~1 mM
IC50 [6]: ~1 mM
binding result [7]: no binding

B2
Kd [8]: 6 µM

B3: N-TRADD I72A mutant protein (other)
chain: MAAGQNGHEEWVGSAYLFVESSLDKVVLSDAYAHPQQKVAVYRALQAALAESGGSPDVLQMLKIHRSDPQLAVQLRFCGRQPCGRFLRAYREGALRAALQRSLAAALAQHSVPLQLELRAGAERLDALLADEERCLSCILAQQPDRLRDEELAELEDALRNLKCGSGAR
notes: also called 172A (so in the source); not shown: His tag after aa169 of the N-TRADD construct
binding result [9]: binds

B4: N-TRADD D149A mutant protein (other)
chain: MAAGQNGHEEWVGSAYLFVESSLDKVVLSDAYAHPQQKVAVYRALQAALAESGGSPDVLQMLKIHRSDPQLIVQLRFCGRQPCGRFLRAYREGALRAALQRSLAAALAQHSVPLQLELRAGAERLDALLADEERCLSCILAQQPDRLRAEELAELEDALRNLKCGSGAR
notes: Single point mutant of the N-TRADD (1-169) construct; not shown: His tag after aa169 of the N-TRADD construct
binding result [9]: binds

B5: N-TRADD Y16A mutant protein (other)
chain: MAAGQNGHEEWVGSAALFVESSLDKVVLSDAYAHPQQKVAVYRALQAALAESGGSPDVLQMLKIHRSDPQLIVQLRFCGRQPCGRFLRAYREGALRAALQRSLAAALAQHSVPLQLELRAGAERLDALLADEERCLSCILAQQPDRLRDEELAELEDALRNLKCGSGAR
notes: as for B4
fold reduction in C-TRAF2 affinity against wild-type N-TRADD [10]: ~16 fold

B6: N-TRADD H65A mutant protein (other)
chain: MAAGQNGHEEWVGSAYLFVESSLDKVVLSDAYAHPQQKVAVYRALQAALAESGGSPDVLQMLKIARSDPQLIVQLRFCGRQPCGRFLRAYREGALRAALQRSLAAALAQHSVPLQLELRAGAERLDALLADEERCLSCILAQQPDRLRDEELAELEDALRNLKCGSGAR
notes: as for B4
binding result [9]: binds

B7: CD40-p1 peptide (YPIQET) (peptide)
peptide: YPIQET
notes: Peptide of McWhirter et al; also called CD40-pl; 6-mer peptide
IC50 [11]: ~200 µM
